# B1: Tremovirus B (nucleic acid)
# DNA: TTCAAATGGCCCCTGGGTTGATACCCAGTGGTCATTTGGACACTTTGGTAAGGAGGTGTAATTATCCTTCCCATGTGGAACCTAGTGCTTAGGTTTACTTTATATGTTCTTTGTTTGTCCTTTGTACTTTCTATCGGGCAATCTTGTTGTTCAATACAATATGTATTTGAACTGCCTAAGATAAATTCAGTTTTCAACCAACCCCTCTCTTGGGGTTGTGTCTTTCTTTCTTTCTTATATCCTCTTAAGCTGACTTACTTGCTAATCCGACTCCTCGTCAACGGGAGGGTAAAGCAGTATCACTAGGGTATTGTGATGTAGGAGAAAAAGTAAGTAGAGATAGTGCATGTAACGAAAGTGACTTGGTACTTTAAACTCTCTTAATCCCAAAGTGTGGTATTGGTCATGTTGGAGTAGGCTACGGGTGAAACTCCTTCACATTTAGTAATGTGTTCACACGCTAACGCTACGGTAGATGACAGACTAGGTCTTATTCTCAACGTAGGGGGACGGGTGTATGTTCATGATTAGCCACATATTAAGGTTTTGAGGGGCTGAGTCATATAAGTATGTGCATTAATTTCTGGTACTGGTCCCTGGGGACTGGCCCTTTTCTAGGTTGATTTTAGTTTCCCCAATTTTTAAAAACTAATGAGATTTACGAC
# modifications: Tremovirus B
# B2: Grusopivirus A (nucleic acid)
# chain: TGCCTGAGTAGGATTGTGAATTTAGGTATGAGAGGGTTAGCCAACCCATTCTGAACCATAATAGATACGTCAATCTGAATCCATCTAAATCTATCTCTTAGGCAGTGGTGCTGAAATATTGCAAGCTACTAGGGATAGACGTGATCTGATTCAAGAACCTATCTAATGTGGTGATGAGAAGGCTAGGTTTATCCATAGTAATCCCTTGTTCTGAACAGGCAATGCACATGCTCTAGTAGGATCTCGGGCTCTGCGATTGGCTCTAAACCGACCAATCCAGGTAGAGGCACTAAGTGTAGGACTTGCCAAAATGTATTACATGCTGGTACCGACTCACTAGTCTGGAAACTCCACACTGAAAGTGACTGGGGGGGGCCCCATCACATTTGTGCTACTGCTTGATAGAGTTGCGGCTGGTCAACTTGGATTGGTATAACCAGTTGAA
# modifications: lipid formulation; Grusopivirus A
# B3: Hepatovirus G1 (nucleic acid, listed as Hepatovirus sp.)
# DNA: GCAAGGGGTGGTTTTAACCTTGCACGCGTTTACCGTGCGTTAACGGTTTTCCATGTTTGTATGTCTTGTTTGTATTATGTGTTTTGTAAATATTAATTCCTGCAGGTTCAGGGTTCTTTAATCATGTTGGGCTGTACCCACACTCAACTTTTGGCCATAAGTGAGTTTCTTAACGAACCTTTTAACACAGGATGTTATTAGGGCCCAATATTTTCCCTGAGGCCTTCTTTGGCCTCTATTTTTTCCCCTTTTCTATCTCCTTGTATTCCGGGCTCACGTGATGCCAATGGACTGACCCATGCGCCCGTGGGGGTTAACTACTGGAGTAGCCAGTAGCTGTAGGTGCTAAAAGTCACGTACGTGTAAGACTGGACGAGACCTCTCAGCTATAACTGAAAGTAGTAAGTATGTCTGAACTTCTTGAAGGGGTAGGCTACGGGTGAAACCCCTTAGGTTAATACTCATATTGAGAGATACCTCTGATAGGTGAAGGTTTCCGGTAGAGGTGAGTTTAACGACAAAGCCTCTCAACGGATGTGGGCCCACCTCATCAGCAAGATGCTTTCATACCCAATACCGTAGGGGCTGGGTTGTTGAGTTCAGTCCCAAGCGTCCCTCCCGCAAGGTTGTAGGGGTACTCAGGGGCATTTAGGTTTCCACAATTAAACAAATACA
# B4: Hepatovirus I (nucleic acid)
# DNA: GGCTGCCTGTGTCTCAGGGGTAAGTACTGGGGCCGCGTTGACCGTGCGGTACGGTTATGCTTTTAGATTAGGATGTCCGTCTGTCCGGCACTCTCTTTTGCTTAAAATGGCCTTAAATCCATGGGAGGCGTAACCATGGGCCCTTTGTTACCTAGACATGATTGCATTGGGGGCCGTCCTTGGGGCTTAGGCCCCAGCCATTTCTCTTGACTCGTCTAAGAGTTTACTTCATCCTTTTCTTTACTTTATTTTCCAGGCTCTCAGCATGCCGACGGCTCTGACCACTGCGCCCGGTGGGGTTAACTGCATGATTAGCATGCAGCTGTAGGAGTTAAAAGTGCTGACAGGCCAATTCTGACGTAAGTCCACTCTATATTAACTTGATCAAGTAAGGTTGATTGATCTTTGTGAGAGGGTAGGCTACGGGTGAAACCCTCTAGGTTAATACTCATATTGAGAGATACCTCCAGAAGGTGAAGGTTGGCGGATATTGGTGAGTTCTTTTAGGACAAAAACCTTTCAACGCCTGTGGGCCCACCTCACTGGCACAATGCTTTCATCCCCAATTGTGATGGGTAGTTTGGACTGAAATCAGGAGTAACCTGCCCTACGAGTTTAGGGGTAGTTCAGGGGTATTTAGGCTTCCACATTTGATAGAGTTTATGAGAGTGAGCC
# modifications: Hepatovirus I
# B5: Turkey Gallivirus M176 (nucleic acid, listed as Gallivirus sp.)
# DNA: CCACTCGCACTTCCTGGATAGTGCGTTAGATATGCCCGACATATCGCTTCCAGGACCAAAGCCCCCCTTTTCTCTTTCCCAACCAGCTTCGCCACTCAAGCTGTAATTCCATGTCCGGTCTTTCCGGCCTTAGTATCATGGAAATGTGGTCGTGCTCAAATGAAATTGAGTTGACATTGATCAATGAAAGTTGCACTGAACTTTGCTAAACTGGCTAGCGCCACCTGGTGTGTGCCGTTGGTCTCCTCACATGGTAACATGTGCCAACGGGCCCGAAAGGCTAGTGGGCAATTACCGCTCCAAGGGAGGGGTACCCACCCCGACCTGAACAGCGGTAATGAAGCTCACCTCCCAGGCTCTGACCCCGAGAAGTTTAGTTATTTAGTAGGTGTAATTAGTACTTGTGATTGGTCAATTTGATAGTAGTTTGAAACGTTATGGATGAATGAGTAGACCCCCTGAAGGTACCCCATTACATGGGATCTGATCAGGGCCACATTCTGCGTGTCTCCCCGCACTTGTGGTTAAAACCATGAAAGTTCATCCCAAACAATCTTTTCCTCTTCTTTTTCTTTTAGTGGTGACAACCTACTGGATTGGTGATTACCAATCTGTACTAGTGTTGTATTAAGACTTGTTGTGTGGAGAAAATGGACTCTTTCAAGAAGATTTTTG
# modifications: lipid formulation
# B6: Grusopivirus B (nucleic acid)
# chain: GCCATCCGTAGGTTCTGGTAAGGTTCCATCAACTGTTGGGGCGCTAGTTGCTATGACCGCATTCACGGACGGATGATTTATAGTATCACCCAATCCGGGCACAACTTCTTTAGCCACTTCTTCCACATTACTAAGGGCTCTCTTGCCGAGTTTCAACGTCTAGTCCACGACACGGACCTTCCTACTTTTCTATCTTCTTATTTTCTCTACTAAATTGGTATCTGGTACTGAAGATATGCGGATTGTGATTTTGTGCCTGTCTAAACTAACCCTATTCTAGGGTTAGGTGGGTACCATATACTAATGGTGAACAGGATTACCTATGTATCCATTAGTCCCTATGGATCTGGCGACCCACAAACTCATGTTCATAGAGAGGCTAAGCTGAGTGCTCGCCGAATAAGCATTGCTTCAGGTGCCGACTATTGTCTGGAAACCACTCAGTGATAGCTATAGGGGGGGGCCCCGTAGCATCTGCCTTACTGCCTGATAGGGTGGCGGCTGGTCCATGAACATGCAGTAACCAGTTGACTTGAC
# modifications: lipid formulation; Grusopivirus B
# B7: Yancheng osbecks grenadier anchovy picornavirus (nucleic acid)
# DNA: CCTTAGGGTCTGGAATGCGTCCTTTCTGGGCACTTCCACAATCCTAAGGTAATTTTCAACGCCAGCGATGGAGCGATATCCAAAGAACCTTTATGTTTTAGTTCGTCTTGTATGTTTATAAAATATAAAATTGGGATTAGCAACCCACAAAAACATTTTTGTTATTCTCACCACATGAGAGGGTGGTTAAACCTCTTCGTAACCTATCTTGCTTGATTGGCTACTTGGGCTAGATTTAGGACAACCTCTTTAGCAAGCCTAAATTACTCCTCGTACTTGCACCTGGTAACAGGCGTACCTGGAGGTTACGGTGGCGCTAACTTGGACTTCTCGTTAATTCGTGCAAGTTTAAATGATGCCTATTTTGAATACAAGAAAGTATGATAGTAACTTAGGGCGTGAAGTTCCGCTTAACATAAGGCAGTATAAGTACTAAGATAAGGTGTAAGACCTACCTTAATAACTGTTGTCTTTTCTCATGGTCTTTCCGTGGGAGCCCTTGCTAGGGGTAAAGTTAAGTATTCTCAAATAATTTTTCATTCAAACTCTTTCTCTCTGTTTT
# modifications: lipid formulation; source: /note="Description of Unknown: Yancheng osbecks grenadier anchovy picornavirus sequence"
# B8: Hepatovirus D (nucleic acid)
# DNA: CTTTGGATGCCCATAGTGCGGGGGTATAAATACCGCACTCCCTTTAGCTGTTCCGAGGGTATCGGAACCTATATGTTTGTTTTCTGTCTGTCTGTCAGCTTTATGTGTGCTCGTCCCCTTTAGGGCACTCATTTCAGCTTGCTTTCATTCTTTTCTTCCCCGGTTCTCACCTTACCGGAGGCACTGGCCGTTGCGCCCGGCGGGGTCAACCTAGTGATTAGCACTAGGCTGTAGGTGTCTAAAGTGGTGACATTAAGACTTGGTAACTGATTTCAGCACTGTTAACTGATGTTGGGGATGACTTGATTGATCTTCTGGAAGGGGTAGGCTACGGGTGAAACCCCTTATCTTAATACCACTATGTAGAGATAGATTCAGTAGGTTAAGGGCAGTGGATAAGGTTGAGTTCATTTTGGACAATAAACCTTCAACACTGGTGGACCCAATCTCACTGACCAGATGCTTTCTTGACTGATCCTTCAGAGGGGTGATTCTTCTGAATAGGTTGCCTTGACACTGATGCCTGAGACCCATTGGGTCGGGCCTTAAATCATGGAACTCCACTGGACTTTCATGGCCTAGCTTCTGCCTTAGACAGACTCTGGGGCCCCACGACCCTCTGGGCCCTTCGGGGTACTCAGGGGCATTTAGGTTTTTCCACAATTAAAAGAGTTA
# modifications: Hepatovirus D
# B9: Hepatovirus H2 (nucleic acid, listed as Hepatovirus sp.)
# DNA: GTCATGTTTCTCTTTAAGAACACTCAATTTTGGCCATAAGTGAGACTCTTGTCGAACCTTTCATGTCAGGACCATGTTAGGGCCATTATCCTTTTCCCTGGGGCATTCTTCTTGCCCCTGTTTCATCTTTCTATCATCTTTCTTCCGGGCTCTCACAATGCCAATGGAGCGACCGATGCGCACGTCGGGGTTAACCCATGGATTAGCCATGGGCTGTAGCTGCTAAAAGTTGTGACTCCTGAAGCATACTATCAATGGTAGTAGATGTAACTGAAACACTGAAGCTTCTCTGATCTTGAAAGAAGGGTAGGCTACGGGTGAAACCCTTCAGGTTAATACTCATATTGAGAGATACCTTTGGTAGGTTAACGTTGGCGGATAATGTTGAGTTTAACGACAATAAACATTCAACGCCTGTGGGCGAACCTCACCAATTTCATGCTTTGAAGTGAATGTGCGTAGGGTCTCTATCGGAGATGCTATGTGGATGGTGCCCTCCCTGGAAACAGGTTGTAGGGGTACTCAGGTGCACTTAGGTTTCCACATTTTAAAGATTTTTC
# Test system: HEK293 cells
# Type: cell-based, human
# Settings: circular RNA encoding Gluc with the listed IRES (UTR truncated to 675 nt) transfected into HEK293 cells; supernatant after 24 hours
row,Molecule,Expression (luminescence from secreted Gluc protein)
1,B1,1.31E+05
2,B2,1.09E+05
3,B3,1.41E+05
4,B4,8.79E+05
5,B5,4.37E+05
6,B6,2.12E+05
7,B7,1.57E+06
8,B8,1.47E+06
9,B9,1.08E+05

# — patent publication US20240245805A1 (Orna Therapeutics, Inc., priority 2020, published 2024)
